# Experimental data as given in patent US20080152587A1 (Amgen, published 2008).
# B1: fully human monoclonal antibody 4.18.1 (ATCC Accession Number PTA-7476) (antibody, V domains shown)
# VH: EVQLVESGGGLIQPGGSLRLSCAASGFTVRNNYMNWVRQAPGKGLEWVSVIYTGGSTYYADSVKGRFTISRDNSRNTLYLQMNSLRAEDTAVYYCAREGAVAGFDYWGQGTLVTVSL
# VL: EIVMTQFPATLSMSPGERATLSCRASQSVSSSLAWYQQTPGQAPRLLIYGASTRSTGFPARFSGIGSGTEFTLTISSLQSEDFAVYYCQQYGNWPLTFGQGTRLEIK
# B2: fully human monoclonal antibody 2.6.1 (ATCC Accession Number PTA-7475) (antibody, V domains shown)
# VH: EVQLVESGGGLIQPGGSLRLSCAASGFTVITNYMNWVRQAPGKGLEWVSIIYTGGSTSYADSVKGRFTVSRDNSKNTLYLHMNSLRVEDTAVYYCAREIAVAGYYGMDVWGQGTTVTVS
# VL: DIQMTQSPSSLSASVGDRVTITCRASQGIRNDLGWYQQKPGKAPKRLIYAASSLQSGVPSRFSGSGSGTEFTLTISSLQPEDFATYYCLQHNSYPLTFGGGTRVEIK
# notes: also called mAb 2.6.1
# B3: fully human monoclonal antibody 2.19.2 (ATCC Accession Number PTA-7474) (antibody, V domains shown)
# VH: QVQLVESGGGVVQPGRSLRLSCAASGFTFSSYGMHWVRQAPGKGLEWVAVIWYDGSNKYYADSVKGRFTISRDNSKNTLYLQMNSLRAEDTAVYYCARDQHIVVVTAILDYWGQGTLVTVSS
# VL: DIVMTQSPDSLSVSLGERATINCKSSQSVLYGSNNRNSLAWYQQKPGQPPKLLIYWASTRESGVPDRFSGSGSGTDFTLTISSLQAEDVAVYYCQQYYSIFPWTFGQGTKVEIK
# Assays:
# [1] = molecular target: T1, soluble recombinant human uPAR/His6 (R&D Systems, Cat. # 807-UK-100) (human, UniProt Q03405 23-303); test: low resolution Biacore
# T1 construct: range 1-303; Bought protein; also called soluble uPAR; hu-uPAR
# Method: (§1) A high-density goat anti-human antibody surface over a CM5 Biacore™ chip was prepared using routine amine coupling. […] Each mAb was captured on a separate flow cell using a 30-second contact time at 10 μL/min followed by a 5-minute wash at a 100 μL/min flow rate for stabilization of the mAb baseline. […] All antigen samples were prepared in the running buffer.
# [2] = molecular target: T1, soluble recombinant human uPAR/His6 …; test: high resolution Biacore, mAb amine coupled, uPAR injected
# Method: (§2) All mAbs were diluted into 10 mM sodium acetate, pH 4.0 for immobilization. […] All experiments were run at 23° C. with a flow rate of 100 μL/min. Serially diluted (2-fold) uPAR samples were randomly injected in triplicate for 90 seconds with several buffer injections interspersed for double referencing. A Biacore™ 2000 biosensor instrument was used for all high resolution experiments. Data were fit globally to a 1:1 interaction model with a term for mass transport included.
# [3] = molecular target: T2, human Ly6e with a myc tag, expressed in HEK293T cells (human, UniProt Q16553 21-101); test: FACS, HEK293T cells expressing Ly6e, supernatant 1:2
# T2 construct: whole, on cells; not shown: myc tag fused on the molecule
# T2 sequence (looked up): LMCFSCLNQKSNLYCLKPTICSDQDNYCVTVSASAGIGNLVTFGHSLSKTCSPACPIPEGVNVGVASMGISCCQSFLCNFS
# [4] = molecular target: T1, soluble recombinant human uPAR/His6 …; test: limited antigen ELISA, uPAR coat 80 ng/mL, sample 1:25
# Target sequence in this assay (Q03405 other isoform, or with tags, fused parts or gaps limits assumed, form in doubt): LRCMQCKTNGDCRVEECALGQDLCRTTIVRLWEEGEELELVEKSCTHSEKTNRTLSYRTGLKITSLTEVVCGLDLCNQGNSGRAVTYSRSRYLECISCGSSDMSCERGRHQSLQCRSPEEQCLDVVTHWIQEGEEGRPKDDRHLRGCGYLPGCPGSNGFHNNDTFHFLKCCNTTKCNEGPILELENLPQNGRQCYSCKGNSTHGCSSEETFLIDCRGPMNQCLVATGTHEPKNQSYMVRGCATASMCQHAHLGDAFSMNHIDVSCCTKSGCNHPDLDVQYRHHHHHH
# Method: ELISA plates were coated with a lower amount ofuPAR in comparison with the High Antigen Quantitation assay described below (320, 160, 80, 40 and 20 ng/mL). Samples containing one concentration of antibody (Ab) (1:25 dilution) were incubated overnight to allow Ab binding to approach equilibrium.
# [5] = molecular target: T3, mouse uPAR on the surface of NCTC L929 cells (mouse, UniProt P35456 24-298); test: FACS, NCTC L929 mouse cells, mAb 6.25 µg/ml
# T3 construct: whole, on cells; also called cell surface mouse uPAR
# T3 sequence (looked up): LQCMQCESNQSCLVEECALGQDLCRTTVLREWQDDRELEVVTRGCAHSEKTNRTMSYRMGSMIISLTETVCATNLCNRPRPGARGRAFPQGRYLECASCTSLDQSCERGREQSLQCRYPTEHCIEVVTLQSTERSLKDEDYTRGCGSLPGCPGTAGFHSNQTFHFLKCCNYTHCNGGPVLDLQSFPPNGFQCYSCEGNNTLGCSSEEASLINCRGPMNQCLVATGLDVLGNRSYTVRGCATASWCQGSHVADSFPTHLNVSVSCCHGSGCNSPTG
# Method: To make the mouse cross-reactivity results conclusive, direct binding of the mAbs to cell-bound mouse uPAR was measured using FACS analysis. The mouse cell line derived from the connective tissue, NCTC L929, was employed for FACS analysis. The harvested cells were resuspended at 50,000 cells/well using FACS buffer into a V-bottom plate which was put on ice. […] After washing, Cy5-labeled goat anti-human IgG Fc at 5 μg/ml and 7AAD at 5 μg/ml was added. The mixtures were incubated for 15 min on ice, washed and resuspended in cold FACS buffer for FACS analysis.
# [6] = molecular target: T4, human urokinase-type plasminogen activator receptor (uPAR, CD87), cell-bound (human, UniProt Q03405 23-305); test: FACS competition with FITC-tc-uPA, line material
# T4 construct: whole, on cells; On B300.19 or L929 transfectants (full length cDNA), or native on U937 and PC-3 cells
# From the text: (§3) Briefly, murine fibroblast L929 cells (ATCC) were transfected to express human uPAR.
# [7] = molecular target: T1, soluble recombinant human uPAR/His6 …; test: low resolution Biacore, mAb captured by goat anti-human, hu-uPAR 312 nM;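 further: surface plasmon resonance on a CM5 chip with goat anti-human antibody surface made by amine coupling, each mAb from supernatant captured per flow cell, kinetics fitted including mass transport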
# Method: as §1
# A mass transport coefficient was used in fitting the data.
# [8] = molecular target: T1, soluble recombinant human uPAR/His6 …; test: high resolution Biacore
# Method: as §2
# [9] = molecular target: T5, cynomolgus monkey uPAR, cell-bound (cynomolgus monkey, UniProt Q9GK78 23-305); test: FACS, GeoMean; cynomolgus uPAR expressed on 293T cells; antibody concentration not given
# T5 construct: whole, on cells; also called cyno-uPAR
# [10] = molecular target: T4, human urokinase-type plasminogen …; test: FACS competition, FITC-tc-uPA on L929 cells expressing human uPAR, supernatant 1:2
# From the text: as §3
# [11] = molecular target: T6, recombinant cynomolgus uPAR ECD with C-terminal His tag (cynomolgus monkey, UniProt Q9GK78 23-303); test: KinExA, solution equilibrium, human uPAR beads capture free antibody
# T6 construct: Used as conditioned medium of transfected HEK293 cells
# Method: Kinetic measurements of several of the antibodies were evaluated using the KinExA® method. This method involves solution-based determination of formal affinity measurements at equilibrium. […] The remaining active groups on the beads were blocked with 10 mg/ml BSA in 1 M Tris and stored in the blocking solution as recommended by the manufacturer. KinExA experiments were performed using an automated flow immunoassay system, KinExA 3000, in which beads coupled with human uPAR served as the solid phase.
# The mixture was drawn through the human uPAR-coupled beads to accumulate unbound antibody. The captured antibody was detected using solutions containing a Cy5-conjugated goat anti-human IgG heavy and light chain specific secondary antibody in sample buffer. […] Three replicates of each sample were measured for all equilibrium experiments. The equilibrium dissociation constant (KD) was obtained from nonlinear regression analysis of the data using a one-site homogeneous binding model with an unknown ligand concentration contained within the KinExA software.
# T4 sequence (Q03405 23-305): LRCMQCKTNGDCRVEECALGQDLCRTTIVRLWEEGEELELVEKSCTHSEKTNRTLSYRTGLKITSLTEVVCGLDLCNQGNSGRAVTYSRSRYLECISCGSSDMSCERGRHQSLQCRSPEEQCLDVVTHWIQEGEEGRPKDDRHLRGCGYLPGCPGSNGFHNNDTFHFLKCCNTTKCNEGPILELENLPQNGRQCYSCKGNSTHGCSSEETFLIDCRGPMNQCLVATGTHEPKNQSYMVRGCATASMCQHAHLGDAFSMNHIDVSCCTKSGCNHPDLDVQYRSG
# T5 sequence (Q9GK78 23-305): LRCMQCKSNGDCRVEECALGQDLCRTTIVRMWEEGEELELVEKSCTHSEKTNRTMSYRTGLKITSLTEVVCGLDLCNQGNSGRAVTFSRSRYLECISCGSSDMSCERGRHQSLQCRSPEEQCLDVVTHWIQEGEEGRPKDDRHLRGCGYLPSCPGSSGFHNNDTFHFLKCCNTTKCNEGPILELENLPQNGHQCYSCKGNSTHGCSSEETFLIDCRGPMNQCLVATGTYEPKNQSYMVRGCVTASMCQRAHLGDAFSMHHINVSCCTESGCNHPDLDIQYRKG
Binder,Kd [1],Kd [2],binding result [3],LA at 80 ng/ml [4],X Geo Mean [5],"Human uPAR/uPA binding inhibition (%, line material) [6]",Kd [7],koff [7],kon [7],Kd [8],binding result [9],uPA/uPAR binding Inhibition % [10],Kd [11]
B1,1.5 nM,0.446 nM,no binding (tested: GeoMean ratio 1.95),2.06,8.18,75%,1.5 nM,0.00016 s⁻¹,110000 M⁻¹ s⁻¹,0.446 nM,binds,75%,–
B2,0.57 nM,0.249 nM,no binding (tested: GeoMean ratio 1.95),3.58,12.9,80%,0.57 nM,4.6e-05 s⁻¹,81000 M⁻¹ s⁻¹,0.249 nM,–,80%,1.09 nM
B3,0.31 nM,0.175 nM,no binding (tested: GeoMean ratio 1.95),2.65,9.55,85%,0.31 nM,4.3e-05 s⁻¹,140000 M⁻¹ s⁻¹,0.175 nM,–,85%,0.346 nM
